Here are results for one molecule from article PMC4951694, “Structural and thermodynamic basis of proline-induced transmembrane complex stabilization” (Scientific Reports, 2016).

The target of the test is T1, integrin β3(G690C/A711P) TM peptide of the disulfide-linked αIIb(A963C)–β3(G690C/A711P) dimer (human, UniProt P05106 711-753, C687S | G690C | A711P, not fully specified; C690 disulfide-linked to C963 of αIIb(A963C); 2H/13C/15N or 2H/15N labelling in some samples).
T1 construct: integrin β3, human, P685-F727; add 26 for P05106; source: E. coli
T1 chain (looked up): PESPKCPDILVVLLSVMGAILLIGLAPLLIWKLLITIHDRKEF
The test is described as follows: NMR structure; disulfide-linked dimer, 0.8 mM, in 350 mM DHPC, 105 mM DMPC bicelles (q 0.3), pH 7.4, 40 °C; interhelical NOEs and RDCs. The conditions noted are these: both partners purified.

B1: integrin αIIb(A963C) TM peptide of the disulfide-linked αIIb(A963C)–β3(G690C/A711P) dimer (peptide)
chain: not shown
modifications: C963 disulfide-linked to C690 of β3(G690C/A711P); 2H/13C/15N, 2H/15N or fractionally deuterated labelling in some samples
notes: integrin αIIb, human, A958-P998; add 31 for P08514; source: E. coli
Regarding B1, the binding result is “binds”.
